The values that follow come from the supplement of paper PMC10567573.

B1: INTS3 (parent)
chain: KKREFRFHPIKETVVEEPVDITPY
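Further: lentivirally expressed fusions sorted by FACS into six bins by GFP to DsRed ratio, PSI derived from sequencing read proportions per bin multiplied by bin number.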

The variants in the data set derive from B1. The data set can be described thus: protein stability index of a GFP-peptide fusion (GPS, HEK-293T) (PSI 1-6); higher = more stable. The settings on record: c terminus: a fixed tail appended.
For KKREFRFHPIKETVVEEPVDIYPY [T22Y], the protein stability index was 2.26.

Regarding KKREFRFHPIKETVVEEPVDIGPY [T22G], the protein stability index is 2.03.

With KKREFRFHPIKETVVEEPVDIAPY [T22A], the protein stability index was 1.45.

Turning to KKREFRFHPIKETVVEEPVDICPY [T22C], the protein stability index was found to be 1.82.

For KKREFRFHPIKETVVEEPVDIRPY [T22R], the protein stability index came out at 1.99.

As to KKREFRFHPIKETVVEEPVDIVPY [T22V], the protein stability index was 1.58.

Regarding KKREFRFHPIKETVVEEPVDIIPY [T22I], the protein stability index worked out at 1.96.

KKREFRFHPIKETVVEEPVDIEPY [T22E]: the protein stability index is 1.97.

As to KKREFRFHPIKETVVEEPVDYTPY [I21Y], the protein stability index came out at 1.56.

Take KKREFRFHPIKETVVEEPVDQTPY [I21Q]: the protein stability index came out at 2.43.

Consider KKREFRFHPIKETVVEEPVDDTPY [I21D], for which the protein stability index came out at 2.37.

Take KKREFRFHPIKETVVEEPVDVTPY [I21V]: the protein stability index came out at 2.63.

For KKREFRFHPIKETVVEEPVDRTPY [I21R], the protein stability index was 1.59.

As to KKREFRFHPIKETVVEEPVDKTPY [I21K], the protein stability index turned out to be 2.02.

For the variant KKREFRFHPIKETVVEEPVDGTPY [I21G], the protein stability index came to 1.49.

Take KKREFRFHPIKETVVEEPVDPTPY [I21P]: the protein stability index was determined as 2.5.

On to KKREFRFHPIKETVVEEPVDFTPY [I21F], for which the protein stability index was 1.92.

In the case of KKREFRFHPIKETVVEEPVDCTPY [I21C], the protein stability index was 2.01.

For the variant KKREFRFHPIKETVVEEPVDSTPY [I21S], the protein stability index was 1.21.

As to KKREFRFHPIKETVVEEPVDWTPY [I21W], the protein stability index came out at 2.1.

As to KKREFRFHPIKETVVEEPVDATPY [I21A], the protein stability index is 1.76.

In the case of KKREFRFHPIKETVVEEPVDNTPY [I21N], the protein stability index is 2.

With KKREFRFHPIKETVVEEPVDLTPY [I21L], the protein stability index came out at 2.01.

KKREFRFHPIKETVVEEPVDETPY [I21E]: the protein stability index turned out to be 2.37.

With KKREFRFHPIKETVVEEPVDHTPY [I21H], the protein stability index turned out to be 1.59.

For KKREFRFHPIKETVVEEPVDMTPY [I21M], the protein stability index amounted to 1.7.

As for KKREFRFHPIKETVVEEPVDTTPY [I21T], the protein stability index was found to be 1.95.

As for KKREFRFHPIKETVVMEPVDITPY [E16M], the protein stability index is 1.41.

Regarding KKREFRFHPIKETVVNEPVDITPY [E16N], the protein stability index stood at 2.39.

On to KKREFRFHPIKETVVHEPVDITPY [E16H], for which the protein stability index was 1.83.

As to KKREFRFHPIKETVVCEPVDITPY [E16C], the protein stability index is 2.46.

On to KKREFRFHPIKETVVPEPVDITPY [E16P], for which the protein stability index is 2.54.

As for KKREFRFHPIKETVVIEPVDITPY [E16I], the protein stability index is 2.29.

For the variant KKREFRFHPIKETVVDEPVDITPY [E16D], the protein stability index was found to be 2.18.

As to KKREFRFHPIKETVVREPVDITPY [E16R], the protein stability index worked out at 2.73.

As to KKREFRFHPIKETVVTEPVDITPY [E16T], the protein stability index amounted to 2.16.

Consider KKREFRFHPIKETVVGEPVDITPY [E16G], for which the protein stability index came out at 2.47.

As to KKREFRFHPIKETVVYEPVDITPY [E16Y], the protein stability index came out at 2.36.

For the variant KKREFRFHPIKETVVLEPVDITPY [E16L], the protein stability index is 1.88.

For the variant KKREFRFHPIKETVVFEPVDITPY [E16F], the protein stability index came to 2.4.

As to KKREFRFHPIKETVVVEPVDITPY [E16V], the protein stability index was found to be 1.95.

As for KKREFRFHPIKETVVAEPVDITPY [E16A], the protein stability index was 1.73.

Consider KKREFRFHPIKETVVWEPVDITPY [E16W], for which the protein stability index was 2.1.

For KKREFRFHPIKETVVQEPVDITPY [E16Q], the protein stability index was determined as 1.86.

On to KKREFRFHPIKETVVSEPVDITPY [E16S], for which the protein stability index was determined as 1.82.

Regarding KKREFRFHPIKETVVKEPVDITPY [E16K], the protein stability index was 2.5.

In the case of KKREFRFHPIKETVVEYPVDITPY [E17Y], the protein stability index amounted to 2.06.

On to KKREFRFHPIKETVVEAPVDITPY [E17A], for which the protein stability index is 1.79.

Consider KKREFRFHPIKETVVEFPVDITPY [E17F], for which the protein stability index was found to be 1.89.

For the variant KKREFRFHPIKETVVELPVDITPY [E17L], the protein stability index is 2.15.

Regarding KKREFRFHPIKETVVEQPVDITPY [E17Q], the protein stability index was determined as 2.42.

For KKREFRFHPIKETVVETPVDITPY [E17T], the protein stability index stood at 2.13.

On to KKREFRFHPIKETVVEHPVDITPY [E17H], for which the protein stability index was 1.62.

For KKREFRFHPIKETVVEVPVDITPY [E17V], the protein stability index was found to be 2.02.

In the case of KKREFRFHPIKETVVEDPVDITPY [E17D], the protein stability index is 1.79.

For KKREFRFHPIKETVVEWPVDITPY [E17W], the protein stability index stood at 2.46.

As for KKREFRFHPIKETVVECPVDITPY [E17C], the protein stability index worked out at 1.97.

With KKREFRFHPIKETVVESPVDITPY [E17S], the protein stability index was found to be 2.24.

Consider KKREFRFHPIKETVVENPVDITPY [E17N], for which the protein stability index worked out at 2.19.

On to KKREFRFHPIKETVVEKPVDITPY [E17K], for which the protein stability index amounted to 1.43.

As to KKREFRFHPIKETVVEIPVDITPY [E17I], the protein stability index worked out at 2.6.

With KKREFRFHPIKETVVEPPVDITPY [E17P], the protein stability index is 1.59.

Take KKREFRFHPIKETVVERPVDITPY [E17R]: the protein stability index is 2.32.

Take KKREFRFHPIKETVVEGPVDITPY [E17G]: the protein stability index was determined as 2.26.

KKREFRFHPIKETVVEMPVDITPY [E17M]: the protein stability index was 1.95.

Consider KKREFRFHPIKETVVEEPVDITKY [P23K], for which the protein stability index stood at 1.99.

KKREFRFHPIKETVVEEPVDITEY [P23E]: the protein stability index worked out at 3.24.

KKREFRFHPIKETVVEEPVDITIY [P23I]: the protein stability index came out at 1.5.

For KKREFRFHPIKETVVEEPVDITDY [P23D], the protein stability index was 2.04.

With KKREFRFHPIKETVVEEPVDITFY [P23F], the protein stability index was 1.67.

KKREFRFHPIKETVVEEPVDITLY [P23L]: the protein stability index is 1.84.

On to KKREFRFHPIKETVVEEPVDITAY [P23A], for which the protein stability index was 1.66.

Turning to KKREFRFHPIKETVVEEPVDITHY [P23H], the protein stability index is 1.74.

As to KKREFRFHPIKETVVEEPVDITGY [P23G], the protein stability index was 3.45.

Consider KKREFRFHPIKETVVEEPVDITCY [P23C], for which the protein stability index is 2.08.

KKREFRFHPIKETVVEEYVDITPY [P18Y]: the protein stability index was determined as 3.25.

With KKREFRFHPIKETVVEECVDITPY [P18C], the protein stability index was 1.86.

Take KKREFRFHPIKETVVEEAVDITPY [P18A]: the protein stability index turned out to be 1.87.

KKREFRFHPIKETVVEEFVDITPY [P18F]: the protein stability index amounted to 2.72.

For the variant KKREFRFHPIKETVVEEHVDITPY [P18H], the protein stability index was determined as 1.74.

Take KKREFRFHPIKETVVEEQVDITPY [P18Q]: the protein stability index came to 2.06.

On to KKREFRFHPIKETVVEENVDITPY [P18N], for which the protein stability index worked out at 2.26.

Turning to KKREFRFHPIKETVVEEDVDITPY [P18D], the protein stability index came to 2.12.

Consider KKREFRFHPIKETVVEERVDITPY [P18R], for which the protein stability index was found to be 2.78.

As to KKREFRFHPIKETVVEEWVDITPY [P18W], the protein stability index worked out at 2.29.

KKREFRFHPIKETVVEEIVDITPY [P18I]: the protein stability index is 1.64.

With KKREFRFHPIKETVVEEVVDITPY [P18V], the protein stability index was found to be 1.83.

For the variant KKREFRFHPIKETVVEEGVDITPY [P18G], the protein stability index is 1.79.

On to KKREFRFHPIKETVVEEMVDITPY [P18M], for which the protein stability index was determined as 1.99.

Regarding KKREFRFHPIKETVVEELVDITPY [P18L], the protein stability index came to 1.85.

With KKREFRFHPIKETVVEEEVDITPY [P18E], the protein stability index was determined as 2.05.

With KKREFRFHPIKETVVEETVDITPY [P18T], the protein stability index amounted to 1.36.

Regarding KKREFRFHPIKETVVEESVDITPY [P18S], the protein stability index came out at 1.79.

In the case of KKREFRFHPIKETVVEEKVDITPY [P18K], the protein stability index amounted to 2.62.
